From patent US20200123260A1 come the findings set out here.

Test in all cases: cell-based or functional assay
For test [1], the target named is hTrkB-a isoform fused to a small peptide epitope, in U2OS cells (Discoverx Pathhunter) (human) (UniProt Q16620).
Test [2] has as its target hTrkA in the SHC1 recruitment assay (U2OS, Discoverx Pathhunter) (human) (UniProt P04629).
Test [3] has as its target hTrkC in the SHC1 recruitment assay (U2OS, Discoverx Pathhunter) (human) (UniProt Q16288).

hTrkB-a isoform fused to a small peptide epitope, in U2OS cells (Discoverx Pathhunter) (human), sequence (Q16620 32-822): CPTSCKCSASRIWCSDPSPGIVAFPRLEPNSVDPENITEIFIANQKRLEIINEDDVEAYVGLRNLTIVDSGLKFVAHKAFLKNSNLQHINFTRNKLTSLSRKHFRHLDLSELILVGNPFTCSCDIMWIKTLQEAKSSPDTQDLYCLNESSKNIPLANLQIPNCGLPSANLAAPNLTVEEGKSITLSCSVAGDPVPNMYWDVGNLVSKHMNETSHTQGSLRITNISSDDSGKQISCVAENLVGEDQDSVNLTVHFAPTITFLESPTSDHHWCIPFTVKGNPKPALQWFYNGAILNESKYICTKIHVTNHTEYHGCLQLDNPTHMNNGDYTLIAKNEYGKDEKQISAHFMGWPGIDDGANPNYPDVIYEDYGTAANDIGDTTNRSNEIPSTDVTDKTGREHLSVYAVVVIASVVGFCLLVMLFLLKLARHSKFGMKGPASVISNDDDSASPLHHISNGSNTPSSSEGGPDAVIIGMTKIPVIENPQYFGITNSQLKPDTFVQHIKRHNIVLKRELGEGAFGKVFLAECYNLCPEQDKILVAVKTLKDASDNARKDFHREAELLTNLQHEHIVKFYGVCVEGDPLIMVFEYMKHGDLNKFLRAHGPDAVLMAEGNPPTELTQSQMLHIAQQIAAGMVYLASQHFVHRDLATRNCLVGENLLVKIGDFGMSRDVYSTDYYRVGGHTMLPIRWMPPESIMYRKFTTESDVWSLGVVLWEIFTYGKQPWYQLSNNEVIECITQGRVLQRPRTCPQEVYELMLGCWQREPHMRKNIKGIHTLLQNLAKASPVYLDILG
hTrkA in the SHC1 recruitment assay (U2OS, Discoverx Pathhunter) (human), sequence (P04629 33-796): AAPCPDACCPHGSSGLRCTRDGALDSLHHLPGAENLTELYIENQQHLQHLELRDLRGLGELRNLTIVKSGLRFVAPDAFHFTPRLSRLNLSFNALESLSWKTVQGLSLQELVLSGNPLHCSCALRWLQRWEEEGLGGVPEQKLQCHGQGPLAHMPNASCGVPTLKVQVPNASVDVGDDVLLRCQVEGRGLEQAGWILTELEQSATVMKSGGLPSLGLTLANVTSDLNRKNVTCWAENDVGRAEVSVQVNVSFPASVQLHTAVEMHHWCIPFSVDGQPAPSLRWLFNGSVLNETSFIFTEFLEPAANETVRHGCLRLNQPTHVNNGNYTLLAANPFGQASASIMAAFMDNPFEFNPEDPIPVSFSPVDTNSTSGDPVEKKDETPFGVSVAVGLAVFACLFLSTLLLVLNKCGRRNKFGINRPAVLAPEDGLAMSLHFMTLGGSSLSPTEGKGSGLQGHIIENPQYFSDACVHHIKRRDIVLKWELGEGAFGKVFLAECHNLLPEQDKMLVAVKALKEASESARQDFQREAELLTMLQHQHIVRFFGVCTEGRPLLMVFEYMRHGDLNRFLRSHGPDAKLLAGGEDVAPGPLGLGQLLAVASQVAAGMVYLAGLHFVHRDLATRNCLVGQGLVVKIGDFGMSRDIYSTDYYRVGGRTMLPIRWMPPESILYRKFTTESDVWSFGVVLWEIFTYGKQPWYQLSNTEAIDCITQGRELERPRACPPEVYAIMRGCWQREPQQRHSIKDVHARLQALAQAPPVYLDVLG
hTrkC in the SHC1 recruitment assay (U2OS, Discoverx Pathhunter) (human), sequence (Q16288 32-839): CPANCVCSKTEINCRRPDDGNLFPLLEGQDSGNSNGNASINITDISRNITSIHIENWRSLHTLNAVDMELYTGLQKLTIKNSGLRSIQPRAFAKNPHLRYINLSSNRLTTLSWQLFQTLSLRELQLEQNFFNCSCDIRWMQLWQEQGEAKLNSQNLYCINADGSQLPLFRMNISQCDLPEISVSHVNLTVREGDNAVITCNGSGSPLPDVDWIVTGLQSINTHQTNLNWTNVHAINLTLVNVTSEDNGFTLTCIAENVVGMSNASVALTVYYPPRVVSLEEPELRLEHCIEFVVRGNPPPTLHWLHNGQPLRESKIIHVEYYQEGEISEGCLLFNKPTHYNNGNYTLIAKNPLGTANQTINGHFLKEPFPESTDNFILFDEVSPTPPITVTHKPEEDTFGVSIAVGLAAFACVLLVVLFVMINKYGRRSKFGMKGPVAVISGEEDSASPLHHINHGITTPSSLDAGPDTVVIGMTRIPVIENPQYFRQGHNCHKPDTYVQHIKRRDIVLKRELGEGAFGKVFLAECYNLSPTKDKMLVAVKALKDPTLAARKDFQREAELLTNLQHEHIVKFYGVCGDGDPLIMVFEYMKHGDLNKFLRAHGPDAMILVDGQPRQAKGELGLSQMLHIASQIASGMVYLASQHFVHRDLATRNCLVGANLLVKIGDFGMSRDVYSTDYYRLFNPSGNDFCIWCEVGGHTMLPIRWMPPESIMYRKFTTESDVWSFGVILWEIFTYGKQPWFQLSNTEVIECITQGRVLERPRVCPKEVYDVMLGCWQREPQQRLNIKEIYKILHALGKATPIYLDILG
NGF (R&D 256GF) (ligand), sequence (P01138 122-241): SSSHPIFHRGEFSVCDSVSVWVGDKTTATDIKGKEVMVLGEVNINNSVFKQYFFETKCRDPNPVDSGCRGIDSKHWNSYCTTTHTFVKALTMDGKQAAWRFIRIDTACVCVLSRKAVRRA

As for NGF (R&D 256GF) (ligand), the EC50, SHC1 recruitment assay in test [1] is 1.59 nM.
Consider hIgG control antibody, for which the Fold-increase, SHC1 recruitment assay amounted to 1.1 fold in test [2], 1 fold in test [3] and 1.1 fold in test [1].
